From article PMC5944921

Columns and labels:
[1] = biological target: GLA cross-linked soluble BG505 SOSIP trimer (GLA-SOSIP trimer) (HIV-1 BG505); assay: ELISA; capture ELISA: plates coated with 4 ug/mL mAb 2G12, SOSIP or GLA-SOSIP trimer (0.2 ug/mL) captured, titration series of biotinylated mAbs or ligand; binding index = AUC on GLA-SOSIP trimer / AUC on SOSIP trimer
[2] = biological target: GLA cross-linked soluble BG505 SOSIP trimer (GLA-SOSIP trimer) (HIV-1 BG505); assay: SPR; ProteOn XPR36, GLC chip with human antibody capture kit; 2G12 captured, then about 600 RU of trimer; dilution series of Fab passed over for 180 s, 600 s buffer; HBS-EP+ pH 7.4 with 1 mg/mL BSA; binding index = signal ratio GLA-SOSIP trimer / SOSIP trimer

Substance	fold loss of binding against SOSIP trimer (ELISA binding index) [1]	fold loss of binding against SOSIP trimer (SPR binding index) [2]
PGT145 (mAb) (antibody)	3.3 fold	
PGT145 Fab		5.3 fold
